Results published in patent US9758785B2, “miR-520 microRNAs sensitize cancers to platinum-based therapy” (BAYLOR COLLEGE OF MEDICINE, priority 2012, dated 2017).
“Also recorded” adds a separate entry of the source.

B1: hsa-mir-520a MI0003149 (nucleic acid, listed as Homo sapiens)
chain: CUCAGGCUGUGACCCUCCAGAGGGAAGUACUUUCUGUUGUCUGAGAGAAAAGAAAGUGCUUCCCUUUGGACUGUUUCGGUUUGAG
modifications: expressed or natural sequence
notes: seed 5'aagugcu; mimic or stably expressed

Legend:
Format in all cases: cell-based, human
OVCAR8 cells [1] = assay: Viability (MTS) across cisplatin concentrations, stable microRNA clones
Experimental: (§1) Established ovarian cancer cell lines were obtained from the ATCC (OVCAR8, OVCAR5) and the University of Texas M.D. Anderson Cancer Center (HEYA8, SKOV3ip1). All cell lines were maintained at 37° C. in RPMI 1640 media (Invitrogen, Carlsbad, Calif.) supplemented with 10% fetal bovine serums (Hyclone, Logan, Utah) and 1% penicillin/streptomycin (Gibco, Carlsbad, Calif.). MicroRNA mimics and mimic controls (Dharmacon, Lafayette, Colo.) were transiently transfected into actively growing cultures using Lipofectamine 2000 (Invitrogen, Carlsbad, Calif.). After a 24-hour incubation, transfected cultures were washed, passaged and seeded into 96 well plates. Proliferation and apoptosis were measured at 72, 96 and 120 hours after transfection using standard assays (Cell Titer 96 Aqueous One; Caspase Glo 3/7; Promega, Madison, Wis.). pLemiR expression vectors (Open Biosystems/Thermo, Huntsville, Ala.) were prepared according to manufacturer's instructions and transfected into cells using Fugene 6 (Roche, Indianapolis, Ind.). Following transfection, stable clones were selected using puromycin (Invitrogen) at doses optimized for each line. Rates of proliferation and apoptosis were examined in stable transfectants 24, 48, 72 and 96 hours after selected cells had been passaged and dispensed into 96 well plates. Viability was assessed across a clinically relevant range of cisplatin concentrations using an MTS assay (Promega). Cisplatin was obtained from Teva Pharmaceuticals (Irvine, Calif.).
(§2) For this reason, the inventors created clones of OVCAR8 and SKOV3ip1 ovarian cancer cell lines stably expressing either miR-520h (n=3) and miR-520a (n=3). […] To assess the impact of these microRNAs on cisplatin-induced cell killing, the inventors examined the viability of OVCAR8 and SKOV3ip1 cells stably expressing either microRNA incubated with clinically relevant concentrations of cisplatin. […] It should be noted that SKOV3ip1 cells tolerated only very low levels of miR-520a expression. The impact of cisplatin treatment on rates of apoptosis differed dramatically between the two cell lines.

SKOV3ip1 cells [2] = assay: as above
Experimental: as §1, §2

OVCAR8 cells [3] = assay: Proliferation assay (MTS, Cell Titer 96 Aqueous One); settings: OVCAR8, transient/acute mimic transfection vs non-silencing control, no cisplatin
Experimental: as §1

OVCAR8 cells [4] = assay: Apoptosis assay (Caspase Glo 3/7)
Experimental: as §1

SKOV3ip1 cells [5] = assay: Apoptosis assay (Caspase Glo 3/7)
Experimental: as §1

[6] = system: established ovarian cancer cell lines; assay: Proliferation or apoptosis in established ovarian cancer cell lines after mimic transfection; settings: mimics vs control cultures; cell lines SKOV4, HEY, OVCAR8, OVCAR5
Experimental: as §1, with “Rates of proliferation and apoptosis were examined in stable transfectants 24, 48, 72 and 96 hours after selected cells had been passaged and dispensed into 96 well plates.” left out, “Cisplatin was obtained from Teva Pharmaceuticals (Irvine, Calif.).” left out

Molecule | IC50 for cisplatinum in control cells (OVCAR8 cells [1]; OVCAR8 cells expressing a non-targeting mimic control) [µg/mL] | IC50 for cisplatin in control cells (SKOV3ip1 cells [2]; SKOV3ip1 cells expressing the non-silencing control) [µg/mL] | Sensitization to cisplatin (viability) (OVCAR8 cells [1]; OVCAR8 stable clones vs non-silencing mimic, cisplatin <5 μg/mL) | Sensitization to cisplatin (viability) (SKOV3ip1 cells [2]; SKOV3ip1 stable clones vs non-silencing mimic) | Proliferation (OVCAR8 cells [3]) | Apoptosis (caspase 3/7) (OVCAR8 cells [4]; OVCAR8, transient/acute mimic transfection vs non-silencing control, no cisplatin) | Apoptosis in presence of cisplatin (OVCAR8 cells [4]; OVCAR8 stable clones, cisplatin up to 10 μg/mL) | Apoptosis (caspase 3/7) (SKOV3ip1 cells [5]; SKOV3ip1, acute mimic transfection, no cisplatin) | Apoptosis in presence of cisplatin (SKOV3ip1 cells [5]; SKOV3ip1 stable clones, cisplatin treatment) | Impact on proliferation or apoptosis [6]
N.N.[Cl][Pt][Cl] [cisplatin, reference compound] | 1.31 | 0.43 | – | – | – | – | – | – | – | –
B1 | – | – | sensitized | appeared to sensitize | decreased proliferation only in OVCAR8 cells | decreased rates of apoptosis | significantly decreased; also recorded: significantly lower rates of apoptosis | decreased rates of apoptosis | significantly increased | impacted proliferation and/or apoptosis in some but not all
